{"source": "patent US20110091460A1", "molecular_target": "interleukin 13 receptor (IL13R) (human)", "assay": "cell-based or functional assay"}
{"substance": "DTIL13 (ligand)", "values": [{"measurement": "IC50, inhibition of Calu-3 cell growth (3H-thymidine proliferation assay, 72 h)", "value": 3.1, "unit": "nM"}, {"measurement": "IC50, inhibition of HT-29 cell growth (3H-thymidine proliferation assay, 72 h)", "value": 95, "unit": "nM"}, {"measurement": "IC50, inhibition of PC-3 cell growth (3H-leucine proliferation assay, 72 h)", "value": 0.038, "unit": "nM"}, {"measurement": "IC50, killing of DU-145 cells (3H-thymidine proliferation assay, 72 h)", "value": "> 100", "unit": "nM"}, {"measurement": "IC50, killing of U87 MG cells (3H-thymidine proliferation assay, 72 h)", "value": 10, "unit": "nM"}, {"measurement": "IC50, killing of U118 cells (3H-thymidine proliferation assay, 72 h)", "value": 2, "unit": "nM"}]}
